Test results from patent US20170306037A1 (Novartis, published 2017).
Each block holds one binder with its values, some of them ahead of it.

Legend:
[1] = target: T1, human GITR expressed on cells (human, UniProt Q9Y5U5 27-241); assay: cell-based or functional assay
T1 sequence: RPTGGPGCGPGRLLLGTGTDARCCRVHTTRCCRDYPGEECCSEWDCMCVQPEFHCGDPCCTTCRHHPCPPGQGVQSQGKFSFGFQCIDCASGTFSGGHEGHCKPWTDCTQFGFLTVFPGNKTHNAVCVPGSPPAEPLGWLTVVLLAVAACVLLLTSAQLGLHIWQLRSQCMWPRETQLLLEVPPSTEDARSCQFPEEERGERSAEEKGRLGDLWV

[2] = target: T1, human GITR expressed on cells; assay: FACS competition on hGITR stable HEK293 cells: ligand titrated first, then 4 nM MAB7 as competitor, PE anti-human detection
Method: The ability of MAB to block ligand binding was assessed using HEK293 NFκB reporter parental cells and hGITR stable cells were used in competition binding assays and FACS analysis. Briefly, harvested cells were plated 1×10⁶ cells per mL, 100 μL per well to a 96 well round bottom FACS plate (Corning), then resuspended in 200 μL of cold FACS buffer (1×PBS+1% FBS-HI+0.1% sodium azide) per well. […] Plates were incubated for 1 hour on ice protected from light, cells washed, then prepared 4 nM isotype control or MAB solutions were prepared and added to appropriate wells at 100 μL per well and plates were incubated for 1 hour on ice protected from light, cells washed, then PE-conjugated goat-anti-human detection antibody (Jackson ImmunoResearch) prepared at 1:100 dilution in FACS buffer was added at 100 μL per well and plates were incubated for 30 minutes on ice protected from light. Cells were washed in FACS buffer then cells were fixed with 100 μL per well of BD CytoFix (BD Biosciences) and incubated for further 15 minutes on ice protected from light.

[3] = target: T2, mouse GITR extracellular domain (mouse, UniProt O35714 20-153); assay: ELISA on coated GITR ECD
T2 construct: extracellular domain; also called murine GITR; rodent GITR
T2 sequence (looked up): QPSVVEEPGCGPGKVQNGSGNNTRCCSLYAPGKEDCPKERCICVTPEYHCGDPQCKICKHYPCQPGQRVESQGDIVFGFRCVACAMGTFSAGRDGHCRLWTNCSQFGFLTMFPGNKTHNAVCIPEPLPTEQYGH
Method: (§1) The plate was blocked with a solution of 1% BSA in PBS for one hour at room temperature and then rinsed three times with PBST. The MAB was then diluted to 0.5 μg/mL or 1 μg/mL in PBS and 20 μL was added to each well. The plate was incubated for 1 hour at room temperature and then washed three times with PBST. […] The plate was incubated for 1 hour at room temperature, and then washed six times with PBST. 25 μL of SureBlue TMB (KPL 52-00-02) substrate was added to each well and the plate was incubated for about 10 min at room temperature.

[4] = target: T3, Recombinant human GITR and human Fc fusion protein (hGITR-hFc) (human, UniProt Q9Y5U5 26-162, limits assumed, biotinylated in the ForteBio Octet assays (sites not given)); assay: ForteBio Octet, Fab on human GITR (biotinylated hGITR-hFc sensors per paragraph 356); experiment b
T3 construct: also called biotinylated hGITR-hFc; not shown: human Fc
T3 sequence: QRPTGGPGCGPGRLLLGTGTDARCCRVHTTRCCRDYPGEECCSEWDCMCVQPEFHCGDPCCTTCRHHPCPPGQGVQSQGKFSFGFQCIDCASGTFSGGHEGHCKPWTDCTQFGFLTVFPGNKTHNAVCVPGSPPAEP

[5] = target: T3, Recombinant human GITR and human Fc …; assay: ForteBio Octet, Fab on human GITR (biotinylated hGITR-hFc sensors per paragraph 356); experiment a
[6] = target: T3, Recombinant human GITR and human Fc …; assay: ForteBio Octet, Fab on human GITR (biotinylated hGITR-hFc sensors per paragraph 356); experiment c
[7] = target: T4, human GITR extracellular domain (hGITR ECD) (human, UniProt Q9Y5U5 26-162); assay: ELISA on coated GITR ECD
T4 construct: also called human GITR ECD
T4 sequence: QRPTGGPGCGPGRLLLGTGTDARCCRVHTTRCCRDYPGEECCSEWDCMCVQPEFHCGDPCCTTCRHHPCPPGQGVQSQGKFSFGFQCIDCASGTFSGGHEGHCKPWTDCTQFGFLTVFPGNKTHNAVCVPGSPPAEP
Method: as §1

[8] = target: T5, human GITR (hGITR), form not stated (human, UniProt Q9Y5U5 26-162, limits assumed); assay: Biacore (SPR), IgG
T5 construct: the construct is not described
T5 sequence: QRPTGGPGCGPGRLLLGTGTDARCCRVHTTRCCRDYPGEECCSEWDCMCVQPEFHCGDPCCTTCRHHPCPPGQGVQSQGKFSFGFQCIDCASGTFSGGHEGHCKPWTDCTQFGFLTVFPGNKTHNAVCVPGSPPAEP

[9] = target: cyno GITR (cGITR), form not stated (cynomolgus monkey); assay: Biacore (SPR), IgG
[10] = target: T3, Recombinant human GITR and human Fc …; assay: ForteBio Octet QK, streptavidin biosensors coated with biotinylated hGITR-hFc
Description: Human germline residues incorporated into the optimized reference MAB1opFab in FR1 and FR3 are those specified by the PCR primers used to amplify the human V-segment repertoire and thus are present in all members of the Humaneered® Antibody V-region libraries. The optimized reference Fab is constructed to assess whether or not any of the changes to human germline alter the properties of Fab binding.

EC50, NFκB-luciferase reporter in 293 cells overexpressing human GITR [1]: ~65 nM
IC50 (read off the curve) [2]: ~0.2 molar ratio of Human GITR Ligand to MAB7 (MAB7 at 4 nM)
B1: recombinant human GITR ligand (GITR-L) (ligand, UniProt Q9UNG2 52-177, looked up)
chain: ETAKEPCMAKFGPLPSKWQMASSEPPCVNKVSDWKLEILQNGLYLIYGQVAPNANYNDVAPFEVRLYKNKDMIQTLTNKSKIQNVGGTYELHVGDTIDLIFNSEHQVLKNNTYWGIILLANPQFIS

binding result [7]: binds
B6: MAB8 (IgG1 kappa) (antibody, V domains shown)
VH: EVQLVESGGGLVQSGGSLRLSCAASGFSLSSYGVDWVRQAPGKGLEWVGVIWGGGGTYYASSLMGRFTISRDNSKNTLYLQMNSLRAEDTAVYYCARNAYGHDGGFAMDYWGQGTLVTVSS
VL: EIVMTQSPATLSVSPGERATLSCRASESVSSNVAWYQQRPGQAPRLLIYGASNRATGIPARFSGSGSGTDFTLTISRLEPEDFAVYYCGQSYSYPFTFGQGTKLEIKR
notes: MAB4 with the glycation site KH changed to RN
binding result [3]: no binding (tested: 0.5 µg/mL or 1 µg/mL)

Kd [8]: 4.29 nM
Kd [9]: 3.67 nM
B8: MAB7 (IgG1 kappa) (antibody, V domains shown)
VH: EVQLVESGGGLVQSGGSLRLSCAASGFSLSSYGVDWVRQAPGKGLEWVGVIWGGGGTYYASSLMGRFTISRDNSKNTLYLQMNSLRAEDTAVYYCARHAYGHDGGFAMDYWGQGTLVTVSS
VL: EIVMTQSPATLSVSPGERATLSCRASESVSSNVAWYQQRPGQAPRLLIYGASNRATGIPARFSGSGSGTDFTLTISRLEPEDFAVYYCGQSYSYPFTFGQGTKLEIKR
notes: MAB4 with the glycation site KH changed to RH
binding result [3]: no binding (tested: not on the sheet; paragraph 336: 0.5 or 1 µg/mL)

binding result [3]: no binding
binding result [7]: binds
B11: MAB1 (murine monoclonal GITR agonist antibody) (antibody, V domains shown)
VH: QVQLKESGPGLVAPSQSLSITCTVSGFSLRSYGVDWVRQPPGKGLEWLGVIWGGGGTNYNSALMAKLSISKDKSKSQVFLKMNSLQTDDTAMYYCAKHAYGHDGGFAMDYWGQGTSVTVSS
VL: NIVMTQSPKSMSMSVGERVTLSCKASENVDTFVSWYQQKPDHSPKLLIYGASNRYTGVPDRFTGSGSATDFTLTISSVQAEDLADYHCGQSYSYPFTFGSGTKLEIK
notes: Mouse hybridoma antibody; also called parental mouse antibody MAB1; MAB1 parental Ab

Further lines, the binder ahead of its results:

B2: MAB6 (IgG1 kappa) (antibody, V domains shown)
VH: EVQLVESGGGLVQSGGSLRLSCAASGFSLSSYGVDWVRQAPGKGLEWLGVIWGGGGTYYTSSLMARFTISRDNSKNTLYLQMNSLRAEDTAVYYCAKHAYGHDGGFAMDYWGQGTLVTVSS
VL: EIVMTQSPATLSVSPGERATLSCRASESVSSNVAWYQQRPGQAPRLLIYGASNRATGIPARFSGSGSGTDFTLTISRLEPEDFAVYYCGQSYSYPFTFGQGTKLEIKR
binding result [3]: no binding (tested: 0.5 µg/mL or 1 µg/mL)

B3: MAB5 Fab (human full-chain Fab) (Fab, V domains shown)
VH: EVQLVESGGGLVQSGGSLRLSCAASGFSLSSYGVDWVRQAPGKGLEWLGVIWGGGGTYYTSSLMGRFTISRDNSKNTLYLQMNSLRAEDTAVYYCAKHAYGHDGGFAMDYWGQGTLVTVSS
VL: EIVMTQSPATLSVSPGERATLSCRASESVSSNVAWYQQRPGQAPRLLIYGASNRATGIPARFSGSGSGTDFTLTISRLEPEDFAVYYCGQSYSYPFTFGQGTKLEIK
notes: human kappa constant; also called MAB5(b)
Kd [4]: 3.74 nM

B4: MAB2 Fab (human full-chain Fab) (Fab, V domains shown)
VH: QVQLVESGGGLVQPGGSLRLSCAASGFSLSSYGVDWVRQAPGKGLEWVGVIWGGGGTYYASSVMARFTISRDNSKNTLYLQMNSLRAEDTAVYYCAKHAYGHDGGFAMDYWGQGTLVTVSS
VL: EIVMTQSPATLSVSPGERATLSCRASESVSSNVAWYQQRPGQAPRLLIYGASNRATGIPARFSGSGSGTDFTLTISRLEPEDFAVYYCGQSYSYPFTFGQGTKLEIK
notes: human kappa constant; purified on Ni-NTA; also called MAB2(a)
Kd [5]: 6.84 nM

B5: MAB6 Fab (human full-chain Fab) (Fab, V domains shown)
VH: EVQLVESGGGLVQSGGSLRLSCAASGFSLSSYGVDWVRQAPGKGLEWLGVIWGGGGTYYTSSLMARFTISRDNSKNTLYLQMNSLRAEDTAVYYCAKHAYGHDGGFAMDYWGQGTLVTVSS
VL: EIVMTQSPATLSVSPGERATLSCRASESVSSNVAWYQQRPGQAPRLLIYGASNRATGIPARFSGSGSGTDFTLTISRLEPEDFAVYYCGQSYSYPFTFGQGTKLEIK
notes: human kappa constant; also called MAB6(c)
Kd [6]: 5.94 nM

B7: MAB3 Fab (human full-chain Fab) (Fab, V domains shown)
VH: QVQLVESGGGLVQPGGSLRLSCAASGFSLSSYGVDWVRQAPGKGLEWLGVIWGGGGTYYTASLMGRFTISRDNSKNTLYLQMNSLRAEDTAVYYCAKHAYGHDGGFAMDYWGQGTLVTVSS
VL: EIVMTQSPATLSVSPGERATLSCRASQSVSSNLAWYQQKPGQAPRLLIYGASNRATGIPDRFSGSGSGTDFTLTISRLEPEDFAVYYCGQSYSYPFTFGQGTKLEIK
notes: human kappa constant; also called MAB3(a)
Kd [5]: 2.98 nM

B9: MAB4 Fab (human full-chain Fab) (Fab, V domains shown)
VH: EVQLVESGGGLVQSGGSLRLSCAASGFSLSSYGVDWVRQAPGKGLEWVGVIWGGGGTYYASSLMGRFTISRDNSKNTLYLQMNSLRAEDTAVYYCAKHAYGHDGGFAMDYWGQGTLVTVSS
VL: EIVMTQSPATLSVSPGERATLSCRASESVSSNVAWYQQRPGQAPRLLIYGASNRATGIPARFSGSGSGTDFTLTISRLEPEDFAVYYCGQSYSYPFTFGQGTKLEIK
notes: human kappa constant; also called MAB4(b)
Kd [4]: 2.43 nM

B10: MAB1rFab (reference Fab of MAB1) (Fab, V domains shown)
VH: QVQLKESGPGLVAPSQSLSITCTVSGFSLRSYGVDWVRQPPGKGLEWLGVIWGGGGTNYNSALMAKLSISKDKSKSQVFLKMNSLQTDDTAMYYCAKHAYGHDGGFAMDYWGQGTSVTVSS
VL: EIVMTQSPKSMSMSVGERVTLSCKASENVDTFVSWYQQKPDHSPKLLIYGASNRYTGVPDRFTGSGSATDFTLTISSVQAEDLADYHCGQSYSYPFTFGSGTKLEIK
binding result [10]: binds
